Data as given in paper PMC10359460, “Structural basis of the T4 bacteriophage primosome assembly and primer synthesis” (Nature Communications, 2023).
Residue numbers refer to the chain shown, from its start. In names and notes the source's numbering stands.

T1: T4 primosome (gp41 helicase-gp61 primase) (Tequatrovirus T4, UniProt P04530)
T1 construct: gene 41; full-length proteins, intein fusions self-cleaved, E. coli BL21(DE3); 6:1 helicase:primase on ssDNA; with DNA primase
T1 sequence (P04530 1-475): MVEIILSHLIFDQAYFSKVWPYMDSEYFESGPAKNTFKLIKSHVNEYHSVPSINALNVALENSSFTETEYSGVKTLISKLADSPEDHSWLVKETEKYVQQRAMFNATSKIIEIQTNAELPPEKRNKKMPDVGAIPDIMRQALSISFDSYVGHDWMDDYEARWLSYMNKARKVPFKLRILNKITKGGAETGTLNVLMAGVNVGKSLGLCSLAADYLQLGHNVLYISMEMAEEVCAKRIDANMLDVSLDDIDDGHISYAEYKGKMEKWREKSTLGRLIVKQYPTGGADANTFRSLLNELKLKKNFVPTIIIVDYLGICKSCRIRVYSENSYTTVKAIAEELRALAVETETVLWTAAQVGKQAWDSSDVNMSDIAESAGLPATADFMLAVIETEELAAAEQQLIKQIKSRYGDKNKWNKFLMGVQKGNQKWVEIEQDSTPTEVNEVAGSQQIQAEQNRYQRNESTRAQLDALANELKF
T1 sequence (P04520 1-342 partner): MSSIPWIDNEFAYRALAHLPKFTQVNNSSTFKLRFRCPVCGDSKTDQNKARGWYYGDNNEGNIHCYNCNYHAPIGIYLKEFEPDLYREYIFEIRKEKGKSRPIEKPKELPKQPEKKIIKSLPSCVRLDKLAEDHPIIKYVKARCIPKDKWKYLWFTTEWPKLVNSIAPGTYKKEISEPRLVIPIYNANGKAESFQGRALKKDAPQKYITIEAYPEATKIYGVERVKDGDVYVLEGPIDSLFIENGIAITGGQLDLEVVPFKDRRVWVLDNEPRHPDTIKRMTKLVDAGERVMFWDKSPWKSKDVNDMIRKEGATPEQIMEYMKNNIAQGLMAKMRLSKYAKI

T2: gp41 helicase (Tequatrovirus T4, UniProt P04530)
T2 construct: gene 41; full-length, intein fusion self-cleaved, E. coli BL21(DE3); homohexamer, without or with ssDNA
T2 sequence (P04530 1-475): T1 sequence (P04530 1-475)

T3: gp41(E227Q) helicase;gp61 primase (Escherichia phage T4 (T4 …, UniProt P04530;P04520 1-475;1-342, E227Q|))
T3 sequence 1: T1 sequence (P04530 1-475) with E227Q
T3 sequence 2: T1 sequence (P04520 1-342 partner)

T4: gp41 helicase;gp61 primase (Escherichia phage T4 (T4 …, UniProt P04530;P04520 1-475;1-342, |))
T4 sequence 1: T1 sequence (P04530 1-475)
T4 sequence 2: T1 sequence (P04520 1-342 partner)

T5: gp41 helicase (Escherichia phage T4 (T4 bacteriophage), UniProt P04530 1-475)
T5 sequence: T1 sequence (P04530 1-475)

B1: T4 bacteriophage gp41 helicase (enzyme, UniProt P04530 1-475, looked up)
chain: T1 sequence (P04530 1-475)
notes: gp41 helicase of T4 bacteriophage, wild type; NTD (globular subdomain and helical hairpin), linking helix and RecA-like CTD; Hexamer assembled with ATPγS; also called WT gp41 helicase; T4 helicase
B2: T4 bacteriophage gp41 helicase E227Q (enzyme, UniProt P04530 1-475, looked up)
chain: T1 sequence (P04530 1-475) with E227Q
notes: gp41 helicase of T4 bacteriophage with E227Q in the walker-B motif (no ATP hydrolysis); PDB 8DTP is the wild-type parent; also called gp41(E227Q)
B3: T4 bacteriophage gp61 primase (enzyme, UniProt P04520 1-342, looked up)
chain: T1 sequence (P04520 1-342 partner)
notes: gp61 primase of T4 bacteriophage, wild type; N-terminal ZBD and C-terminal RPD joined by a linker loop (Lys97 to Lys115); the models hold a resolved full-length primase; also called WT gp61 primase; T4 primase
B4: ssDNA template/pentaribonucleotide primer (DNA:RNA)
DNA: GAATGAGGAGTAGTAGTGAATGTAGTGAGGTAATATCGGCTGGTCTGGTCTGTGCCAAGTTGCTGCAAAA
?: GCCGA
modifications: RNA primer 5'-triphosphate

Assays:
[1] = biological target: T1, T4 primosome (gp41 helicase-gp61 primase); experiment: cryo-EM structure; assay type: binding; settings: WT primosome with ssDNA, closed-ring gp41; 5 mM ATPγS, 10 mM MgCl2, pH 7.8; sites on gp41
[2] = biological target: T2, gp41 helicase; experiment: cryo-EM structure; assay type: binding; settings: five of six nucleotide sites at CTD-CTD interfaces occupied; 5 mM ATPγS, 10 mM MgCl2, pH 7.8; open spiral without ssDNA (8DUO) or with ssDNA (8DUE), closed ring with ssDNA (8DTP)
[3] = biological target: the molecule itself; experiment: cryo-EM structure; step 1: 6 uM gp41 helicase with 5 mM ATPγS, no DNA; 20 mM HEPES pH 7.8, 100 mM NaCl, 10 mM MgCl2, 2 mM DTT; 30 min at room temperature
[4] = biological target: the molecule itself; experiment: cryo-EM structure; primosome assembled from gp41 E227Q helicase, WT gp61 primase and the ssDNA/RNA primer substrate; helicase and primase regions refined separately
[5] = biological target: B2; experiment: as above; settings: both partners purified
[6] = biological target: B1; experiment: cryo-EM structure; step 3: 6 uM gp41 helicase, 5 mM ATPγS, 12 uM ssDNA/RNA primer substrate and 3 uM gp61 primase; 20 mM HEPES pH 7.8, 100 mM NaCl, 10 mM MgCl2, 2 mM DTT; 30 min at room temperature; settings: both partners purified
[7] = biological target: T3, gp41(E227Q) helicase;gp61 primase; experiment: cryo-EM; mutant primosome, post primer synthesis; composite map, RNA/DNA hybrid seen; Cryo-EM with ATPgS (stated for gp41 and WT primosome); assembly buffer and temperature not in the material; cryo-EM proteins purified in HEPES pH 7.8 buffers; settings: protein: recombinant;recombinant; tags: none (intein tag self-cleaved);none (intein tag self-cleaved); chain copies: 6;1; 70-nt DNA (strand 1) annealed to 5-nt RNA (strand 2) at internal TCGGC; single-stranded DNA on both sides
[8] = biological target: T4, gp41 helicase;gp61 primase; experiment: cryo-EM; ATPgS; WT primosome pose 1; ssDNA seen, no RNA primer density; Cryo-EM with ATPgS (stated for gp41 and WT primosome); assembly buffer and temperature not in the material; cryo-EM proteins purified in HEPES pH 7.8 buffers; settings: protein: recombinant;recombinant; tags: none (intein tag self-cleaved);none (intein tag self-cleaved); chain copies: 6;1; 70-nt DNA (strand 1) annealed to 5-nt RNA (strand 2) at internal TCGGC; single-stranded DNA on both sides
[9] = biological target: T5, gp41 helicase; experiment: cryo-EM; ATPgS; open spiral, 10 nt ssDNA held; RNA primer not resolved; Cryo-EM with ATPgS (stated for gp41 and WT primosome); assembly buffer and temperature not in the material; cryo-EM proteins purified in HEPES pH 7.8 buffers; settings: protein: recombinant; tags: none (intein tag self-cleaved); chain copies: 6; 70-nt DNA (strand 1) annealed to 5-nt RNA (strand 2) at internal TCGGC; single-stranded DNA on both sides

Which cryo-EM structure [1] does the source give for `Nc1ncnc2c1ncn2[C@@H]1O[C@H](COP(=O)(O)OP(=O)(O)OP(O)(O)=S)[C@@H](O)[C@H]1O` [ATPγS] here?
Its cryo-EM structure is “observed in the T4 primosome in the presence of ssDNA and ATPγS”.

What about the cryo-EM structure [2] of the same molecule?
The cryo-EM structure was “five nucleotide binding pockets at the subunit interfaces occupied with ATPγS molecules”.

For B1, which “stoichiometry N” value [3] is on record?
Its value is 6 subunits.

Does B2 bind [4]?
Result: binds

Which results are given for B3?
binding result [5]: binds; stoichiometry N [6]: 1 gp61 primase per gp41 helicase hexamer

Which results are given for B4?
binding result [7]: binds; binding result [8]: binds; binding result [9]: binds
